Laboratory results reported in the nanobody polyreactivity screen of Harvey et al. (2022).

Experiment: yeast display, Sf9 membrane polyspecificity reagent, FACS + sequencing; frameworks hold sequencing errors
Summary of the method: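 Polyreactivity labels are assigned by the sorting gate from which each nanobody was recovered. The gates were low and high (top ~1%), set on anti-HA fluorescence for expression and streptavidin fluorescence for reagent binding. Before sorting, galactose-induced (36–48 hours) yeast display cells were stained for 1 hour at 4 °C with 10% biotinylated, detergent-solubilized Sf9 membrane reagent.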

| Sequence | polyreactivity (PSR sort gate) |
| --- | --- |
| QVQLVESGGGLVQAGGSLRLSCAASGSIYYAMGWYRQAPGKESEFVAAINSGGSTYYADSVKGRFTISRDNAKNTVYLQMNSLKPEDTAVYYCAKPTYRFYWGDFDYWGQGTQVTVSS | low polyreactivity |
| QVQLVESGGGLVQAGGSLRLSCAASGSIYYTNAMGWYRQAPGKERELVAAIRWSGGRTYYADSVKGRFTISRDNAKNTVYLQMNSLKPEDTAVYYCNKVPRTPIPYKYGYWGQGTQVTVSS | high polyreactivity |
| QVQLVESGGGLVQAGGSLRLSCAASGSIYYYVMGWYRQAPGKERELVAAISRSTGRTYYADSVKGRFTISRDNAKNTVYLQMNSLKPEDTAVYYCNKVVPHKPPTMDYWGQGTQVTVSS | high polyreactivity |
| QVQLVESGGGLVQAGGSLRLSCAASGSIYYYYAMGWYRQAPGKERELVAAIRRRGGTTYYADSVKGRFTISRDNAKNTVSLQMISLKPEDTAVYYCAARSKSAYWGQGTQVTVSS | high polyreactivity |
| QVQLVESGGGLVQAGGSLRLSCAASGSLFERYAMGWNRQAPGKEREFVATITSGGGRTYYADSVKGRFTISRDNAKNTVYLQMNSLKPEDTAVYYCNAVYRARSYDYWGQGTQVTVSS | high polyreactivity |
| QVQLVESGGGLVQAGGSLRLSCAASGSLFGRYTMGWYRQATGKDREFVAAIDRVGITNYADSVKGRFTISRDNAKNTVYLQMNSLKPEDTAVYYCAADYGAIRPRDFIEVPGHYDYWGQGTQVTVSS | low polyreactivity |
| QVQLVESGGGLVQAGGSLRLSCAASGSLFGYNAIGRYRQARGKERELVAAITGSGGSTYYADSVKGRFTLSRDNAKNTVYFQMNSLKPEDTAVYYCADDLFGGPLGYWDYDYWGQGTQVTVSS | low polyreactivity |
| QVQLVESGGGLVQAGGSLRLSCAASGSLFNLYAMGWYIQAPGKERELVAAISWSGGRTFYADSVKGRFTISRDNAKNTVFLQMNSLKPEDTAVYDCAARSSRTTRQGYDYWGQGTQVNVSS | high polyreactivity |
| QVQLVESGGGLVQAGGSLRLSCAASGSLFRYYAMGWYRQAPGTERELVAAITGRGGSTYYADSVKGRFTISRDNAKNTVYLQMNSLKPEDTAVYYCADYIDANVHRFDYWGQGTQVTVSS | low polyreactivity |
| QVQLVESGGGLVQAGGSLRLSCAASGSLFSTYAMGWYRPAPGKERELVAAIPTSGGRTYYADSVKGRFTISRDNAKNTVYLQMNSLKPEDTAVYDCNAVRGGRYGLDYWGQGTQVTVSS | high polyreactivity |
| QVQLVESGGGLVQAGGSLRLSCAASGSMFVVYAMGWYRQGPGKERELVAAISWGIGSTYYADSVKGRFTISRDNAKNTVYLQMNSLKPEDTADYYCAADTDIVLYDYWGQGTQVTVSS | low polyreactivity |
| QVQLVESGGGLVQAGGSLRLSCAASGSMFYYYAMGWYRQAPGKERELVAAISSAGITNYADSVKGRFTISRDNAKNTVYLQMNSLKPEDTAVSYCAAAVFDIYWFLGEAYYFQYDYWGQGTQVTVSS | high polyreactivity |
| QVQLVESGGGLVQAGGSLRLSCAASGSNFAYNAMGWYRQAPGKERELVAGITTSGSRTYYADSVKGRFTISRDNAKNTVYLQMNSLKPEDTAVYYCAADPYFYPIYDYWGQGTQVTVSS | low polyreactivity |
| QVQLVESGGGLVQAGGSLRLSCAASGSNFEYYTMGWYRQAPGKEREFVAAITFTGDSTYYADSVKGRFTSSRDNAKNTVYLQMNSLTPEDTAVYYCNDDSDTYDGEYDYWGQGTQVTVSS | low polyreactivity |
| QVQLVESGGGLVQAGGSLRLSCAASGSNFGYNALGWYRQAPGKDRELVAAITGSGGSTYYADSVKGRFTISRDNAKNTVYLQMNSLKPEDTAVYYCAHDLFGGPLGYWDYDYWGQGTQVTVSS | low polyreactivity |
| QVQLVESGGGLVQAGGSLRLSCAASGSNFLYNAMGWYRQAPGKERELVAAITQGGGSTYYADSVKGRFTISLDIAKNTVYLQMISLKPEDTAVYYCNKASFYDAHRLDYWGQGTQVTVSS | high polyreactivity |
| QVQLVESGGGLVQAGGSLRLSCAASGSNFPGYAMGWYRQAPGKERELVAAISTSGGSTYADSVKGRFTISRDNAKNTVYLQMNSLKPEDTAVYYCAATYTYTSPVYYSLDGPWPYDYWGQGTQVTVSS | low polyreactivity |
